In the assay the target is IL-6/sIL-6R complex. Description: cell-based or functional assay.

Substance “wild type sgp130Fc (from UniProt P40189 23-619) (Fc fusion)” registered an IC50, inhibition of IL-6/sIL-6R-induced proliferation of BAF3/gp130 cells (MTS cell viability assay, 3 days) of 0.8 µg/mL.

For the origin of these results see patent publication US20140178378A1.
